Source: PMC10165346 (Computational and Structural Biotechnology Journal, 2023)

Legend:
SEC-MALS = molecular target: the molecule itself; test: SEC-MALS
cross-linking = molecular target: the molecule itself; test: cross-linking

B1: mouse TRIM56 coiled-coil domain mutant (L244A, V251A, V255A, I262A, L266A, Q269A, V273A, Q276A, L277A, L280A, R291A) (domain or fragment, UniProt Q80VI1 215-303, looked up)
chain: GLEELLAGVDSNLVELEATRVAEKEALALAREQAASAGTQAEEAAERALKSALAAKQEALGAARAAVEAAEEATREALTKIERQEQVAK
- stoichiometry N (SEC-MALS): 2

B2: FLAG-tagged full-length mouse TRIM56, wild type (natural protein, UniProt Q80VI1 1-734, looked up)
chain: MNSKVSSPTLLEALSSDFLACKICLEQLHTPKTLPCLHTYCQDCLAQLDIGGQVRCPECREIVPVPAEGVAAFKTNFFVNGLLDLVKARAPGDVHSGKPTCALCPLVGGKSSGGPATARCLDCADDLCQACADGHRCSRQTHKHRVVDLVGYRAGWYDEEARERQASQCPQHPGEALCFLCQPCSQLLCKDCRLGPHIDHPCLPLAEAVRSRKPGLEELLAGVDSNLVELEATRVAEKEALALLREQAASVGTQVEEAAERILKSLLAQKQEVLGQLRALVEAAEEATRERLTKIERQEQVAKAAAAFARRVLSLGLEAEILSLEGAITQRLRQLQDAPWTSGPTRCVLPQLELHPGLEDKNCHLLRLIFEEPKQSPKDSGKGGAGTQGGDEAQGQGDDRTKIGKQGGAQPLTPKEGKDQNPQEDDGVFIERGNRPNKKKKCKGRGKSVSREPSPILRPNLEGSGLLPRPVFSWSFPTRMPGDKRSPRITGLCPYGPQEILVADEQNRVLKRFSLNGDYKGTVQVPEGCSPCSVAALQNAVAFSANAKLYLVSPDGEIQWRRSLSLTQSSHAVAAMPCGDRVAVSVAGHVEVYKKDGSLATRFIPGGKASRGQRALVFLTTSPQGNFVGSDWQQNSVVFCDGLGQVIWEYKGPGLHGCQPGSVSVDKKGYIFLTLREVNKVVILDPKGSLLGDFLTAYHGLEKPRVTTMVDGKYLVVSLSNGTIHVFRVRFPDS
- stoichiometry N (cross-linking): 4

B3: mouse TRIM56 RING domain (residues 2-88) (domain or fragment, UniProt Q80VI1 2-88, looked up)
chain: NSKVSSPTLLEALSSDFLACKICLEQLHTPKTLPCLHTYCQDCLAQLDIGGQVRCPECREIVPVPAEGVAAFKTNFFVNGLLDLVKA
- stoichiometry N (SEC-MALS): 2

B4: mouse TRIM56 coiled-coil domain (residues 215-303) (domain or fragment, UniProt Q80VI1 215-303, looked up)
chain: GLEELLAGVDSNLVELEATRVAEKEALALLREQAASVGTQVEEAAERILKSLLAQKQEVLGQLRALVEAAEEATRERLTKIERQEQVAK
- stoichiometry N (SEC-MALS): 4
